These results are taken from US20260265354A1 (JIANGSU MABWELL HEALTH PHARMACEUTICAL R AND D, published 2026).

Positions count from the first letter of the chain named.

First the molecules themselves.
B1: Antibody R012 (antibody, V domains shown)
VH: SKSVEESGGRLVTPGTPLTLTCTVSGFSLSTYAMSWVRQAPGKGLEYIGIISGRGTTYYASWLKGRFTISKTSTTVDLKITSPTTEDTATYFCARDAGISDVYTGYFNLWGQGTLVTVSS
VL: QPVLAQLPSASAALGASAKLTCTLSSAHRTYTIAWYQQQQGEAPRYLMMLKSDGSYTKGTGVPDRFSGSSSGADRYLIISSVQAADEADYYCGADDSGGYVFGGGTQLTVTG
notes: Rabbit monoclonal antibody from phage display; also called Nectin-4 rabbit monoclonal antibody R012; rabbit antibody R012
B2: Antibody R036 (antibody, V domains shown)
VH: SQSVEESGGRLVTPGTPLTLTCTVSGFSLSSYAMSWVRQAPGKGLEYIGIIGGRGTTYYAIWAKGRFTISKTSTTVDLKITSPTTEDTATYFCARDAGTTYVGTTYVATGYFNLWGQGTLVTVSS
VL: B1 VL with A5T, L7P, R29K, M49I, K58R, A85D
notes: Rabbit monoclonal antibody from phage display; also called Nectin-4 rabbit monoclonal antibody R036; rabbit antibody R036
B3: Antibody MM11 (antibody, mouse IgG1, kappa, V domains shown)
VH: DVQLQESGPGLVKPSQSLSLTCSVTGYSITSNFYWNWIRQFPGNRLEWMGYISYDGSNNYNPSLKNRISISRDTSKNQFFLKLNSVTTEDTATYYCVRADYWGQGTLVTVSA
VL: DTVMTQTPLSLPVSLGDQASISCRSSQSLESSDGHAYLNWYLQKPGQSPQLLIYRVSNRFSGVLHRFSGSGSGTDFTLKISRVEAEDLGVYFCLQFTHVPFTFGSGTKLEIKR
notes: Mouse monoclonal antibody from hybridoma; also called Nectin-4 mouse monoclonal antibody MM11; mouse antibody MM11

For the first experiment, the target named is T1, Nectin-like-4 (UniProt Q8NFZ8 21-324, limits assumed).
T1 construct: Bought recombinant protein; also called CADM4; IgSF4C
T1 sequence (looked up): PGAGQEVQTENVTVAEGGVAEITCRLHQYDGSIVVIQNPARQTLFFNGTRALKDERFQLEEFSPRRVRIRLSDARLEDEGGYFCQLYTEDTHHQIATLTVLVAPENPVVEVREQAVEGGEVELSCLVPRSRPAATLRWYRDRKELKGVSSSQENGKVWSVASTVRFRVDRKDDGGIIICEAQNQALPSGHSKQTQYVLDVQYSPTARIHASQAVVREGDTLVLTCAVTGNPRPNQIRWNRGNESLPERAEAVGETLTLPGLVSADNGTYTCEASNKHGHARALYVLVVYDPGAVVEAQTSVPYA
In words: ELISA, coated antigen, antibody at 10000 ng/ml. Here is the method: (§1) Coating: Nectin-1, Nectin-2, Nectin-3, Nectin-4, Nectin-like-1, Nectin-like-2, Nectin-like-3, Nectin-like-4, and Nectin-like-5 were diluted to 5 μg/ml in coating buffer (carbonate buffer, pH 9.6) respectively. A 96-well plate was coat with 100 μl per well and incubated overnight at 2-8° C.;
(§2) Sample loading: The plate was taken out, patted dry, and washed twice with 200 μl/well of PBST, then patted dry. The Nectin-4 antibodies prepared in Example 1 (antibody MM11, antibody R012, and antibody R036) were diluted with 1% BSA/PBST to concentrations of 10 μg/ml, 1 μg/ml, 100 ng/ml, and 10 ng/ml, respectively. 1% BSA/PBST solution for dilution was set as a blank control. 100 μl per well was added to the 96-well plate, and incubated at room temperature for 2 hours;
(§3) Reaction termination and plate reading: 100 μl/well of 1 mol/L H3PO4 was added to terminate the reaction and the plated was read. The absorbances of wells in the plate at 450 nm with 650 nm as reference wavelength were read and recorded as OD_{450 nm-650 nm}.
In general terms: ELISA stands for enzyme-linked immunosorbent assay.
In the case of B1, the OD detection value was 0.007 OD450 nm-650 nm.

Regarding B2, the OD detection value was 0.006 OD450 nm-650 nm.

In turn, B3 returned an OD detection value of 0.009 OD450 nm-650 nm.

A further experiment addresses T2, Nectin-1 (UniProt Q15223 31-334, limits assumed).
T2 construct: Bought recombinant protein; also called CD111; PVRL-1
T2 sequence (looked up): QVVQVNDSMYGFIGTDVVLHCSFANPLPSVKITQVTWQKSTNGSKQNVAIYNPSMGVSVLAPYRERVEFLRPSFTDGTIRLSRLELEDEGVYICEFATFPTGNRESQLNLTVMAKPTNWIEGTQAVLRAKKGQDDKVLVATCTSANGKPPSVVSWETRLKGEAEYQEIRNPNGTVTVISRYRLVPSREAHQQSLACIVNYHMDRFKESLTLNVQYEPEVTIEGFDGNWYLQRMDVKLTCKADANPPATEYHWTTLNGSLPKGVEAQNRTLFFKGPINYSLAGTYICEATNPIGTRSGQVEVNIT
The experiment is described as follows: ELISA, coated antigen, antibody at 10000 ng/ml. The procedure:
as §1, §2, §3
As to B1, the OD detection value was determined as 0.008 OD450 nm-650 nm.

With B2, the OD detection value stood at 0.006 OD450 nm-650 nm.

The molecule B3 displayed an OD detection value of 0.012 OD450 nm-650 nm.

A further experiment deals with T3, Nectin-3 (UniProt Q9NQS3 58-404, limits assumed).
T3 construct: Bought recombinant protein; also called CD113; PVRL-3
T3 sequence (Q9NQS3 58-404 limits assumed): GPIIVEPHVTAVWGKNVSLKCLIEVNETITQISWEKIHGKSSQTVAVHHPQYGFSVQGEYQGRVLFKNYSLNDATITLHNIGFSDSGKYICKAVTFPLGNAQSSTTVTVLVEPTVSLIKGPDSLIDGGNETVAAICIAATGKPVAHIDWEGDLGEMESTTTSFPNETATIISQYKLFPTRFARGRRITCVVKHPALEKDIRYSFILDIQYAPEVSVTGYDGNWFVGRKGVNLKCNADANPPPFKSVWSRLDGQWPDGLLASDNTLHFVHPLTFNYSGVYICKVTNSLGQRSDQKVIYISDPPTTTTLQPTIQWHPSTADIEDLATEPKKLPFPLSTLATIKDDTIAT
In words: ELISA, coated antigen, antibody at 10000 ng/ml. Here is the method:
as §1, §2, §3
B1 came in with an OD detection value of 0.007 OD450 nm-650 nm.

In turn, B2 returned an OD detection value of 0.008 OD450 nm-650 nm.

With B3, the OD detection value came out at 0.006 OD450 nm-650 nm.

The target in another experiment is T4, Nectin-like-1 (UniProt Q8N126 25-330, limits assumed).
T4 construct: Bought recombinant protein; also called CADM3; IgSF4B
T4 sequence (looked up): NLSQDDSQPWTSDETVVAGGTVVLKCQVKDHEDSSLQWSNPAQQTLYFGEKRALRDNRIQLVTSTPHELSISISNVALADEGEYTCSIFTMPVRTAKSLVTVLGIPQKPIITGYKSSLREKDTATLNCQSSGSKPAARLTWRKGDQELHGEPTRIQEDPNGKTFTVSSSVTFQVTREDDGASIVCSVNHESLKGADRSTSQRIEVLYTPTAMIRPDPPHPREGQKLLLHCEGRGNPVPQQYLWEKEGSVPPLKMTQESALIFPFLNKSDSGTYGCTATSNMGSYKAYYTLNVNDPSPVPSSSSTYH
In words: ELISA, coated antigen, antibody at 10000 ng/ml. Here is the method:
as §1, §2, §3
The molecule B1 came in with an OD detection value of 0.009 OD450 nm-650 nm.

For the molecule B2, the OD detection value amounted to 0.008 OD450 nm-650 nm.

B3: the OD detection value amounted to 0.012 OD450 nm-650 nm.

The target of the next experiment is T5, Nectin-like-2 (UniProt Q9BY67 45-374, limits assumed).
T5 construct: Bought recombinant protein; also called CADM1; IgSF4
T5 sequence (looked up): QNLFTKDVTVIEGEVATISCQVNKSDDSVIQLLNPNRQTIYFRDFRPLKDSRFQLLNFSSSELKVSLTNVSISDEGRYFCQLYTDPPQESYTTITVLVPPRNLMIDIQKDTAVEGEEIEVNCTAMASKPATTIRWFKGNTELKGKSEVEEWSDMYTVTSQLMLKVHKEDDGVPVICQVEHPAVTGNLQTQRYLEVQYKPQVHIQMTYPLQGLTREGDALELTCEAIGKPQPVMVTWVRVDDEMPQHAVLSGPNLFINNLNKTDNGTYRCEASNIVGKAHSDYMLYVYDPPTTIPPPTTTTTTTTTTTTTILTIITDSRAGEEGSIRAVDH
The experiment is described as follows: ELISA, coated antigen, 0 ng/ml antibody (blank control). The procedure:
as §1, §2, §3
B1 had an OD detection value of 0.008 OD450 nm-650 nm.

Consider B2, for which the OD detection value was 0.007 OD450 nm-650 nm.

B3 displayed an OD detection value of 0.006 OD450 nm-650 nm.

Another experiment deals with T6, Nectin-like-3 (UniProt Q8N3J6 25-367, limits assumed).
T6 construct: Bought recombinant protein; also called CADM2; IgSF4D
T6 sequence (looked up): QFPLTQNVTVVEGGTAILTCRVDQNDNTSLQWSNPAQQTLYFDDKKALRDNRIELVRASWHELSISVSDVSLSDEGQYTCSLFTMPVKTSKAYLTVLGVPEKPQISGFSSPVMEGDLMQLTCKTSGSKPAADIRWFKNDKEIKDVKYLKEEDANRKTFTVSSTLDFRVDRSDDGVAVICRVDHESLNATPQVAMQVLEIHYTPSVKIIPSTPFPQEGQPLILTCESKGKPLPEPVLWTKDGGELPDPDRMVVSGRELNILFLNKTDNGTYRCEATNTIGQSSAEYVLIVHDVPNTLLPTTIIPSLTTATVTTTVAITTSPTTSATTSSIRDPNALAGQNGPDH
The description is as above. Here is the method: as §1, §2, §3
B1 had an OD detection value of 0.008 OD450 nm-650 nm.

In the case of B2, the OD detection value amounted to 0.007 OD450 nm-650 nm.

The molecule B3 came in with an OD detection value of 0.027 OD450 nm-650 nm.

Another experiment concerns the target T3, Nectin-3. Described as above. The procedure: as §1, §2, §3
Consider B1, for which the OD detection value was 0.008 OD450 nm-650 nm.

As for B2, the OD detection value was found to be 0.007 OD450 nm-650 nm.

As for B3, the OD detection value is 0.006 OD450 nm-650 nm.

The next experiment concerns the target T4, Nectin-like-1. The experiment is described as above. The procedure:
as §1, §2, §3
For the molecule B1, the OD detection value is 0.008 OD450 nm-650 nm.

The molecule B2 showed an OD detection value of 0.007 OD450 nm-650 nm.

Turning to B3, the OD detection value amounted to 0.007 OD450 nm-650 nm.
